Assay [1] has as its target T1, human chemokine receptor CXCR4 fused to the N-terminus of GFP or TagRFP (human), P61073.
T1 chain: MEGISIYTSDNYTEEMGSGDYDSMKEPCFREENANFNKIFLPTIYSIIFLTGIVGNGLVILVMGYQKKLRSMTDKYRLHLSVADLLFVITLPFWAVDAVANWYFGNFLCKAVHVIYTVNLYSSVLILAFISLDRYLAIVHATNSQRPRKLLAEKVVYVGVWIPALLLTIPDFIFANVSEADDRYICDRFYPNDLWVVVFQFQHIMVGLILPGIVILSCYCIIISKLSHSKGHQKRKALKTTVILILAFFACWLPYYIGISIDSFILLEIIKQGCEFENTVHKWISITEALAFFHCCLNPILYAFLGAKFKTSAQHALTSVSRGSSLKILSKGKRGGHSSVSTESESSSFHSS
The assay can be described thus: FRET or BRET. The following applies: remark: other sources report otherwise.

Assay [2] has as its target T1, human chemokine receptor CXCR4 fused to …. The assay can be described thus: FRET or BRET. The following applies: remark: other sources report otherwise. (In general: BRET reads energy transfer from a luciferase to a nearby fluorophore.)

B1: human chemokine receptor CXCR4 fused to the N-terminus of GFP or TagRFP, P61073 1-352 (receptor)
chain: MEGISIYTSDNYTEEMGSGDYDSMKEPCFREENANFNKIFLPTIYSIIFLTGIVGNGLVILVMGYQKKLRSMTDKYRLHLSVADLLFVITLPFWAVDAVANWYFGNFLCKAVHVIYTVNLYSSVLILAFISLDRYLAIVHATNSQRPRKLLAEKVVYVGVWIPALLLTIPDFIFANVSEADDRYICDRFYPNDLWVVVFQFQHIMVGLILPGIVILSCYCIIISKLSHSKGHQKRKALKTTVILILAFFACWLPYYIGISIDSFILLEIIKQGCEFENTVHKWISITEALAFFHCCLNPILYAFLGAKFKTSAQHALTSVSRGSSLKILSKGKRGGHSSVSTESESSSFHSS
Consider B1, for which the FRET efficiency in assay [1] is 10.9%; in assay [2], 10.4%.

(Values after PMC3408954.)
